Assay results: the supplement of paper PMC12764529
± gives the half width of the 95% confidence interval.

Assay: folding stability dG unfold from trypsin proteolysis; higher = more stable
Procedure, shortened: (§1)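 Designed mini-proteins (under 80 residues, no cysteine) in a PA-tagged cDNA display construct were digested with trypsin and chymotrypsin. Each protease was used at 11 concentrations (threefold dilutions) plus a no-protease condition, followed by sequencing. K50 was inferred by Bayesian fitting of sequencing counts, and unfolding free energy was derived against a sequence-predicted unfolded-state K50 and a shared folded-state K50, per protease or combined. Only designs with AlphaFold2 dimer inter-PAE above 15 were kept.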

Sequence	folding stability dG unfold [kcal/mol]
SAGKKSTLTIDLPGSTVTLTYDPATGKVRITVNLGVAVAGIDPETGKPGIVTGSVTLEADIDVPPGAPISAG [r5_195_TrMRF]	2.61 ± 0.16
SAGGSAGGSAKIIIIEEDPEEAIRRVEELFGPGARIEPVRVVRVGDKVYVAVGIDIPASLASAGGSAGGSAG [r3_87_TrMRF]	1.094 ± 0.0092
SAGGSAGGSAGGEWRTLYIPIPGMPPEFIETFALELLDDGAKVEDIEWNPNNGYLMITVRSAGGSAGGSAGG [r7_906_TrROS]	1.37 ± 0.029
SAGGSAGGSAGGKPVIYRIEVRLPDSPEREIFEIEVPPDRPEVAEELAKLLGPNVKMEPLSAGGSAGGSAGG [r11_250_TrMRF]	-0.166 ± 0.1
SAGGMPVPVLIVVPEDKIEEIIKKIREETDEDVEIKAFKLPDGRVLLLITFNDPQLAEDFLKKFGFGSAGGS [r16_172_TrMRF]	4.27 ± 0.23
SAGGSAGGSEYYIYIQIDKNGKIEIVDVVPPGEPMEDMPPEQYDHTIMFPFESPEDALAEILKSAGGSAGGS [r12_452_TrROS]	0.606 ± 0.019
SAGGSAGMVVEVREFEIEPDEDKKIKATLERYETPEGPRYVLTIEDPSKNEKKSYPLEPGVDFKKLSAGGSA [r15_75_JUSTAS]	-0.0245 ± 0.26
SKNYPIRISIFQRNPNGNPQTVTYPIPVDAAKELKDAGFEVKDVDPDSGMIMVKFPMPNYPVYIMISIEDSA [r9_5_TrROS]	2.75 ± 0.093
SGPTSITFPDGSSASISLSPDSFTITITLPGSSATSTYDPATGTTTITLTFSSSTVTLTLDPATGTLTVGSA [r9_207_JUSTAS]	3.86 ± 0.11
SAEDEYEVELTFEAPLNEPEVIEKIKKELEELGFEIEEVKVEVLEDPKTVKVTLKARVKGIPPEKLKALSAG [r14_956_TrMRF]	1.78 ± 0.033
SAGGSAGMVLVRTPDGEVLLLPFTSPEEAEEALERLTGGRLVSVRLEGTPGDRLLLVAEVERPPGGSAGGSA [r15_447_TrMRF]	1.88 ± 0.045
SAGEATVEKLEDGYVVVFKDGSVAFLPAVPPAVPVVEIPFKDPEEGRRAVEELGADVLDIGDDSIVVAGSAG [r5_328_TrMRF]	-1.19 ± 0.16
SAGEIAEKLGFKVEDVSIQKEDGTYRIVVRFPMDDRPVVIMGDIKVEEKNGKRKIEIDIDIMPLPPDDPSAG [r5_516_TrROS]	1.89 ± 0.03
SAGGSAGGSAMLRIRFENGLEIEIPKDMTLEELKKLAEELAEELKKEGKEVEVKIVEIEPVPSAGGSAGGSA [r18_213_TrROS_Hall]	1.65 ± 0.044
SAGGPYMEIQFPMPEDQVRPALEKAADEWGMEVKEINYHPNNGMVTITVNDNMPPNRIRKAIEKVLKSAGGS [r8_338_TrROS]	-0.784 ± 0.4
SAGGMEIKIENIEINPDKKTIQYNFEIYHDGQPFKMDISIEVDPKNGLYKITVTYPDFPGVKHTLYIPSAGG [r13_615_TrROS]	3.38 ± 0.23
SAGSVTTITDPAGTTTEIQPLPDGSLLTTTTTHTTNPATGGATTTTTTTLVSPVPGQPSTTTSTTTTPASAG [r5_424_JUSTAS]	1.58 ± 0.039

Sequence	folding stability dG unfold [kcal/mol]
SAGGSAGGSAGMYVYKITYPTPSGGASEKLYPSSVPLEEVLKEAEERGAVEIEILPESELSAGGSAGGSAGG [r11_490_JUSTAS]	0.103 ± 0.1
SAGGSAGGSKKIKIKVKVKNPKTKKYYEIEIEISEEELKEGKLTKEQIKKELEKLGYEVEIVPSAGGSAGGS [r20_221_TrROS_Hall]	3.26 ± 0.15
SAGGVEEAREALEEAGFEIVDVDEETGTVTVRNEETEETITVRVEAPAPPPVEVEEEVEVEEEEEEESAGGS [r16_197_TrROS_Hall]	1.14 ± 0.089
SAGGSADADDVTIVINMFRNPNNKGWFFRIEIQDPDKEREIFMPFDDIPKFQEAGLKIEITEWYPFSAGGSA [r15_783_TrROS]	2.41 ± 0.068
SAGMSADIPVDPVTGTLTITVTDAFNPDKSTTTTVPLSELEAELGRPLTLEEVAARVEAAGVATVTVGPSAG [r14_809_JUSTAS]	1.46 ± 0.051
SMREIPPEDLKKAANAYLNGDKEKVEQLFKDAGFKKVVLEEVEGDGEVLFVALVEHPDGPTVLTVSSSDFSA [r9_783_TrMRF]	0.7 ± 0.064
SAGGSQEELAKQLAEELAKKEGLKEVKVSITPSPGPVLNITFEFYDENGNKKGVKSKTIPLPPDLLSAGGSA [r2_153_JUSTAS]	1.06 ± 0.11
SAGGGMVRPSIKITKHPDTYVATVTVTHPHRPVTVTLPFSSEPEAISEAEKIVEELIATPVPSPAGASAGGS [r16_24_JUSTAS]	0.775 ± 0.037
SAGGAPGVPSVTVIPFDPSTGRALALVVDGDRVYVISSAVPLEVLRELGVDRVEPLPDGTLVAVSLASAGGS [r8_382_TrMRF]	1.13 ± 0.02
SAGSSLTTTSTTTFPGTVRVTTKTPDGKTFTLTVSVSTVPTPDGRVVPSVTTTMDPAARSSNVSPEVDRSAG [r5_462_JUSTAS]	-0.463 ± 0.17
SAGGSMVKEIEIPVPEDWTPEDAVEAAREYLEANPELENVIVRFTLPDGTPLVVEIKPGGKIVKVTPESAGG [r13_690_JUSTAS]	1.71 ± 0.069
SAGGSAGGSKPGEVYEVKVKIKDKETGKYYEVKVKVYRLEDGTLLIEVDGKIFEVPVKDIEIESAGGSAGGS [r12_790_TrROS_Hall]	3.25 ± 0.2
SAGGSAGGSMTRTITLSKEELKKKYPNATLEEIAKDIIEKEPGVKEVTVEEFPGTVKITVTKLSAGGSAGGS [r12_590_JUSTAS]	2 ± 0.086
SAGGMKVTPNGKVVKKKPKVPVKKVTLTVKVKTAEEAKALADALRDLGYKVTVDEETGVVTVEVEIESAGGS [r16_765_TrROS_Hall]	0.996 ± 0.079
SAKVVIIKVKSPEELKAAIEELKKKLPEGAVIYIVNEDGSVYKITFDKKTGKVKIEKVKSLEELKKLLKSAG [r14_913_TrROS_Hall]	2.31 ± 0.054
SAGSAEEIAKKLAEELRKAGYEVKVKVVEVEKVGDGKVVVRVEIEVTYYDKNGKPVKKERFELTIVLPSAGG [r19_418_TrROS_Hall]	2.99 ± 0.12

Assay: folding stability dG unfold from chymotrypsin proteolysis; higher = more stable
Procedure, shortened: as §1

Sequence	folding stability dG unfold [kcal/mol]
SAGKKSTLTIDLPGSTVTLTYDPATGKVRITVNLGVAVAGIDPETGKPGIVTGSVTLEADIDVPPGAPISAG [r5_195_TrMRF]	2.68 ± 0.057
SAGGSAGGSAKIIIIEEDPEEAIRRVEELFGPGARIEPVRVVRVGDKVYVAVGIDIPASLASAGGSAGGSAG [r3_87_TrMRF]	0.9 ± 0.017
SAGGSAGGSAGGEWRTLYIPIPGMPPEFIETFALELLDDGAKVEDIEWNPNNGYLMITVRSAGGSAGGSAGG [r7_906_TrROS]	2.05 ± 0.056
SAGGSAGGSAGGKPVIYRIEVRLPDSPEREIFEIEVPPDRPEVAEELAKLLGPNVKMEPLSAGGSAGGSAGG [r11_250_TrMRF]	-0.577 ± 0.49
SAGGMPVPVLIVVPEDKIEEIIKKIREETDEDVEIKAFKLPDGRVLLLITFNDPQLAEDFLKKFGFGSAGGS [r16_172_TrMRF]	5.17 ± 0.14
SAGGSAGGSEYYIYIQIDKNGKIEIVDVVPPGEPMEDMPPEQYDHTIMFPFESPEDALAEILKSAGGSAGGS [r12_452_TrROS]	0.731 ± 0.022
SAGGSAGMVVEVREFEIEPDEDKKIKATLERYETPEGPRYVLTIEDPSKNEKKSYPLEPGVDFKKLSAGGSA [r15_75_JUSTAS]	0.681 ± 0.14
SKNYPIRISIFQRNPNGNPQTVTYPIPVDAAKELKDAGFEVKDVDPDSGMIMVKFPMPNYPVYIMISIEDSA [r9_5_TrROS]	3.12 ± 0.056
SGPTSITFPDGSSASISLSPDSFTITITLPGSSATSTYDPATGTTTITLTFSSSTVTLTLDPATGTLTVGSA [r9_207_JUSTAS]	5.01 ± 0.083
SAEDEYEVELTFEAPLNEPEVIEKIKKELEELGFEIEEVKVEVLEDPKTVKVTLKARVKGIPPEKLKALSAG [r14_956_TrMRF]	1.92 ± 0.099
SAGGSAGMVLVRTPDGEVLLLPFTSPEEAEEALERLTGGRLVSVRLEGTPGDRLLLVAEVERPPGGSAGGSA [r15_447_TrMRF]	2.16 ± 0.059
SAGEATVEKLEDGYVVVFKDGSVAFLPAVPPAVPVVEIPFKDPEEGRRAVEELGADVLDIGDDSIVVAGSAG [r5_328_TrMRF]	0.346 ± 0.033
SAGEIAEKLGFKVEDVSIQKEDGTYRIVVRFPMDDRPVVIMGDIKVEEKNGKRKIEIDIDIMPLPPDDPSAG [r5_516_TrROS]	1.57 ± 0.054
SAGGSAGGSAMLRIRFENGLEIEIPKDMTLEELKKLAEELAEELKKEGKEVEVKIVEIEPVPSAGGSAGGSA [r18_213_TrROS_Hall]	2.21 ± 0.029
SAGGPYMEIQFPMPEDQVRPALEKAADEWGMEVKEINYHPNNGMVTITVNDNMPPNRIRKAIEKVLKSAGGS [r8_338_TrROS]	0.0859 ± 0.09
SAGGMEIKIENIEINPDKKTIQYNFEIYHDGQPFKMDISIEVDPKNGLYKITVTYPDFPGVKHTLYIPSAGG [r13_615_TrROS]	5.27 ± 0.15
